Assays:
[1] = biological target: NYESO1-001 (tetramer, row label of Figure 31) (human); test: flow cytometry, HLA-A*02/NYESO1-001 tetramer staining of TCR-RNA-electroporated CD8+ T-cells; mock cells 1.09%
[2] = biological target: HLA-A*02/SPINK2-001 tetramer (human); test: flow cytometry, HLA-A*02/SPINK2-001 tetramer staining of TCR-RNA-electroporated CD8+ T-cells; mock cells 0.97%

B1: TCR R49P2B7, alpha and beta chains expressed in human primary CD8+ T-cells by RNA electroporation (TCR, V domains shown)
V domain 1: AQSVTQLGSHVSVSEGALVLLRCNYSSSVPPYLFWYVQYPNQGLQLLLKYTTGATLVKGINGFEAEFKKSETSFHLTKPSAHMSDAAEYFCAVRIFGNEKLTFGTGTRLTIIP
V domain 2: DVKVTQSSRYLVKRTGEKVFLECVQDMDHENMFWYRQDPGLGLRLIYFSYDVKMKEKGDIPEGYSVSREKKERFSLILESASTNQTSMYLCASSLMGELTGELFFGEGSRLTVLE
A % of CD8+ T-cells in the tetramer-positive gate [1] of 0.96% and a % of CD8+ T-cells in the tetramer-positive gate [2] of 30% were found for B1 in this work.
